Measurements taken from patent US20090044296A1 (CORNELL RESEARCH FOUNDATION, published 2009).

B1: HrpN (harpin) of Erwinia amylovora, full-length, yeast two-hybrid construct (other)
chain: MSLNTSGLGASTMQISIGGAGGNNGLLGTSRQNAGLGGNSALGLGGGNQNDTVNQLAGLLTGMMMMMSMMGGGGLMGGGLGGGLGNGLGGSGGLGEGLSNALNDMLGGSLNTLGSKGGNNTTSTTNSPLDQALGINSTSQNDDSTSGTDSTSDSSDPMQQLLKMFSEIMQSLFGDGQDGTQGSSSGGKQPTEGEQNAYKKGVTDALSGLMGNGLSQLLGNGGLGGGQGGNAGTGLDGSSLGGKGLQNLSGPVDYQQLGNAVGTGIGMKAGIQALNDIGTHSDSSTRSFVNKGDRAMAKEIGQFMDQYPEVFGKPQYQKGPGQEVKTDDKSWAKALSKPDDDGMTPASMEQFNKAKGMIKSAMAGDTGNGNLQARGAGGSSLGIDAMMAGDAINNMALGKLGAA
notes: also called pGilda-hrpN; full-length HrpN protein
B2: HIPM (HrpN-interacting protein from Malus), original yeast two-hybrid clone with the 53 C-terminal amino acids (other)
chain: GDRWSMRILWACAIGSAVSLYMVAVDRQLKNRERALAEELKAMEAESGSGEIV
notes: Residues 8-60 are worked out from that; also called pB42AD-HIPM; pAD-HIPM
B3: AtHIPM, 52 amino acid fragment orthologous to the original HIPM prey clone (other)
chain: NDKWSMRILWGCAIGSAIGLYMVAVERQTQNRARAMAESLRAAESQGDGDNV

Experiments:
[1] = target: AtHIPM, endogenous protein in Arabidopsis thaliana ecotype Columbia plants (Arabidopsis thaliana); test: cell-based or functional assay
[2] = target: the molecule itself; test: yeast two-hybrid (LexA system), self-interaction
LexA-lamin = target: T1, LexA-lamin (UniProt P02545 66-230); test: yeast two-hybrid (LexA system), growth without leucine
T1 construct: not shown: LexA part of the fusion
T1 sequence: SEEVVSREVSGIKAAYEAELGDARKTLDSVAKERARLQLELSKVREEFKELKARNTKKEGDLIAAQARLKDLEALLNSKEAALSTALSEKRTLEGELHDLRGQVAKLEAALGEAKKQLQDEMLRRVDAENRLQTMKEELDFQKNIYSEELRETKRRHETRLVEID

[3] = target: T2, HrpN-4, truncated derivative of HrpN spanning residues 1-198 (Erwinia amylovora, UniProt Q01099 1-198); test: yeast two-hybrid, HrpN deletions in pGilda against pB42AD-HIPM
T2 construct: Cloned in pGilda (LexA fusion, bait)
T2 sequence (looked up): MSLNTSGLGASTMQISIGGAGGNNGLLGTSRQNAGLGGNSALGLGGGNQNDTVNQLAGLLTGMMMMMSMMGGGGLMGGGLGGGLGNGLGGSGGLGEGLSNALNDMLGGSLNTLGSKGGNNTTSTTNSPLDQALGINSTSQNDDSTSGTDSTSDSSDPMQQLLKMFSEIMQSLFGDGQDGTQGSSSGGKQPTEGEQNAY

[4] = target: B1; test: yeast two-hybrid (LexA system), HrpN bait, apple cDNA prey clone
[5] = target: B1; test: yeast two-hybrid (LexA system), growth with or without leucine

“HrpN as applied to plants (Messenger, Eden Bioscience; 15 ug/ml of HrpN) (from UniProt Q01099 1-403)” was tested. Which decrease in root growth of the AtHIPM T-DNA mutant line (few AtHIPM transcripts) after treatment with 15 ug/ml of HrpN [1] did it give?
Its decrease in root growth of the AtHIPM T-DNA mutant line (few AtHIPM transcripts) after treatment with 15 ug/ml of HrpN is 6%.

What about the root growth of the wild-type 10 days after treatment with 15 ug/ml of HrpN [1] of the same molecule?
The root growth of the wild-type 10 days after treatment with 15 ug/ml of HrpN was 9%.

What about the top growth of the wild-type plants one week after spraying with 15 ug/ml of HrpN [1] of the same molecule?
Its top growth of the wild-type plants one week after spraying with 15 ug/ml of HrpN is 10%.

Does B1 bind [2]?
Result: binds

Does B2 bind [2]?
Result: no binding

Does B2 bind (LexA-lamin)?
Result: no binding

Does B2 bind [3]?
Result: binds

Does B2 bind [4]?
Result: binds

Which results are given for B3?
binding result [2]: no binding; binding result [5]: binds
